Patent US20230126400A1 (Alector, published 2023)
Changes are numbered by the printed parent chain.

T1: human MS4A4A ECL2 peptide (amino acid residues 159-179), free (human)
T1 construct: synthetic peptide; also called huMS4A4A-ELC2 free-peptide
T1 peptide: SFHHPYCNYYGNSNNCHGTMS

T2: human MS4A4A ECL1 peptide (amino acid residues 86-98) (human)
T2 construct: synthetic peptide
T2 peptide: CMASNTYGSNPIS

B1: anti-MS4A4A antibody 4A-207 (murine) (antibody, V domains shown)
VH: EVNLEESGGGLVQPGGSMKLSCVASGFTFNNYWMNWVRQSPEKGLEWVAEIRLKSNNYATHYAESVKGRFTISRDDSKSSVYLQMNNLRPEDTAIYYCTTDPPMDYSGQGTPVTVSS
VL: QIVLTQSPAFMSASPGEKVTITCSASSSVSYMHWFQQKPGTSPKLWIYSTSNLVSGVPDRFSGSGSGTSYSLTISRMEAEYAATYYCHQRTSYPWTFGGGTKLEIK
notes: murine hybridoma antibody
B2: anti-MS4A4A antibody 4A-201 (murine) (antibody, V domains shown)
VH: QVQLRESGPGLVAPSQSLSITCTVSGFSLSSFGVTWVRQPPGKGLEWLGIIWGDGSTNYHSALISRLSISKDNSKSQVFLKLNRLQTDDTATYYCAKRDYDGREDVMGYWGQGTSVTVSS
VL: DIVMTQSQKFMSTSVGDRVSITCKATQNVRTAVAWYQQKPGQSPKPLIYLASNRHTGVPDRFTGSGSGTDFTLTITNVQSEDLADYFCLQHWSYPLTFGAGTKLEMK
notes: murine hybridoma antibody
B3: anti-MS4A4A antibody 4A-225 (antibody, V domains shown)
VH: B2 VH with R5K, S30T, T35N, V37F, Y59F, I64M, E104D
VL: B2 VL with F10I, T26S, N28T, P46A, T76S
notes: murine hybridoma antibody
B4: anti-MS4A4A antibody 4A-209 (murine) (antibody, V domains shown)
VH: EVKLLESGGGLVQPGGSLKLSCAASGFDFSRYWMSWVRQAPGKGLEWIGEIKSDSSTINYTPSLKDKFIISRDNAKNTLYLQMSKVRSEDTALYYCARRGFYDYDAWFAYWGQGTLVTVSS
VL: QIVLTQSPTLMSASPGEKVTMTCSASSSVTYMYWYQQKPRSSPKPWIYLTSNRASGVPTRFSGSGSGTSHSLTISYMEAEDAATYYCQQWSSNPPTFGAGTKLELR
notes: murine hybridoma antibody
B5: anti-MS4A4A antibody 4A-203 (murine) (antibody, V domains shown)
VH: DVKLVESGGGLVKLGGSLKLSCAASGFTFSSFYMSWVRQTPEKRLELVAAINSNGGSTYYPDTVKGRFTISRDNAKNTLYLQMSSLKSEDTALYYCARQNYYGSSSYWYFDVWGAGTTVTVSS
VL: EIVLTQSPALMAASPGEKVTITCSVSSSISSSNLHWYRQKSETSPKPWIYGTSNLASGVPVRFSGSGSGTSYSLTISSMEAEDAATYYCQQWSRYPLTFGAGTKLELK
notes: murine hybridoma antibody
B6: anti-MS4A4A antibody 4A-210 (murine) (antibody, V domains shown)
VH: DVKLVESGGGLVKPGGSLKLSCAASGFTFGTYTMSWVRQTPEKRLEWVATISSGGSYTFYPDSVKGRFTISRDNAKNTLYLQMSSLKSEDTAMYYCTRDNTTGDRGWYFDVWGAGTTVTVSS
VL: DIVLTQSPVSLAVSLGQRATISCQASESVSFAGKSLMHWFQQKPGQPPKLLIYRASNLESGVPARFSGSGSESDFTLTIDPVEEDDATMYYCMQSMEDPRTFGGGTKLEIK
notes: murine hybridoma antibody
B7: anti-MS4A4A antibody 4A-205, huIgG1 chimera (antibody, V domains shown)
VH: EVQLVESGGDLVKPGGSLKLSCAASGFTFSHYGMSWVRQTPDKRLDWVATIGRDGIHTDYRDSVKGRFTISRDNAKNTLYLQMGSLKSEDSAIFYCARHLYYGLYYSMDYWGQGTSVTVSS
VL: ENVLTQSPAIMSASPGEKVTMTCSASSSVSFMYWYQQKSSTSPKLWIYDTSKLASGVPGRFSGSGSGNSYSLTISSMEAEDVATYYCFQGSGYPLTFGSGTKLEIK
B8: anti-MS4A4A antibody 4A-201, huIgG1 chimera (antibody, V domains shown)
VH: B2 VH
VL: B2 VL

What follows are binders tested against T3, human MS4A4A (human, UniProt Q96JQ5 1-239) (assay: FACS, K562 cells, supernatant).
Protocol: (§1) Positive clones identified in Example 22 above were expanded and then rescreened for specificity against U937, K562, and/or 300.19 cells stably overexpressing human MS4A4A or cyno MS4A4A and parental U937, K562, and/or 300.19 cells. These experiments were performed using supernatants from hybridoma clones which had undergone further expansion after initial selection. Briefly, stably transfected cells were labeled with LIVE/DEAD Fixable Aqua Dead Cell Stain Kit (ThermoFisher Scientific Cat#L34957) on ice for 30 minutes. […] 2×10⁵ cells were aliquoted per well in 96-well U-bottom plates and incubated with 50 μl of culture supernatant on ice for 30 minutes. […] Following this secondary incubation, the cells were again washed twice with ice-cold FACS buffer and resuspended in a final volume of 200 μl of FACS buffer. Analysis was performed on a FACS Canto system (BD Biosciences), with gates drawn to exclude dead (Aqua-positive) cells.
(§2) The APC ratio was calculated for each antibody as follows. […] For cell lines overexpressing human MS4A4A (h4A) or cyno MS4A4A (cy4A), the ration was calculated by comparing the binding measured to the binding observed on the corresponding parental cell lines.

**Q.** Which “fold increase in MFI” value does the source give for B1 here?
**A.** Its value is > 2 fold.

**Q.** Which “fold increase in MFI” value does the source give for B2 here?
**A.** Its value is > 2 fold.

**Q.** For B3, which “fold increase in MFI” value is on record?
**A.** Its value is > 2 fold.

**Q.** With B4 as the binder, how does the “fold increase in MFI” value read?
**A.** The value was > 2 fold.

Target: T1, human MS4A4A ECL2 peptide (amino acid …)
Assay: peptide ELISA, supernatant

**Q.** Does B5 bind?
**A.** Result: no binding

**Q.** Does B6 bind?
**A.** Result: no binding

**Q.** Does B2 bind?
**A.** Result: no binding

**Q.** Does B3 bind?
**A.** Result: no binding

**Q.** Does B4 bind?
**A.** Result: no binding

Each binder was assayed against T4, cynomolgus (cyno) MS4A4A (cynomolgus) (assay: FACS, 300.19 cells, supernatant).
T4 construct: also called cy4A; Cyno 4A
Protocol: as §1, §2

**Q.** With B1 as the binder, how does the “fold increase in MFI” value read?
**A.** The value was > 2 fold.

**Q.** For B2, which “fold increase in MFI” value is on record?
**A.** Its value is > 2 fold.

**Q.** How did the “fold increase in MFI” value turn out when B3 was run?
**A.** The value was > 2 fold.

**Q.** B4 was tested. Which “fold increase in MFI” value did it give?
**A.** Its value is > 2 fold.

Target: T2, human MS4A4A ECL1 peptide (amino acid …)
Assay: peptide ELISA
Protocol: Briefly, 96-well polystyrene plates were coated with […] of synthetic free or BSA-conjugated peptides in coating buffer (0.05M carbonate buffer, pH9.6, Millipore Sigma Cat#C3041) overnight at 4° C. Coated plates were then blocked with ELISA diluent (PBS+0.5% BSA+0.05% Tween20) for 1-hour, washed 3×300 μL in PBST (PBS+0.05% Tween20, Thermo Cat#28352), and then the antibodies were added to the plate (50 μl/well). After 30 mins incubation (room temperature, with shaking), the plates were washed 3×300 μL in PBST. […] After a final set of washes (3×300 μL in PBST), 50 μL of TMB substrate (BioFx Cat#TMBW-1000-01) was added and the reaction was then quenched after 5-10 mins with 50 μL of stop solution (BioFx Cat#BSTP-1000-01). The quenched reaction wells were detected for absorbance at 650nm with a BioTek Synergy Microplate Reader using GENS 2.04 software.

**Q.** Does B5 bind?
**A.** Result: no binding

**Q.** Does B6 bind?
**A.** Result: no binding

**Q.** Does B2 bind?
**A.** Result: no binding

**Q.** Does B3 bind?
**A.** Result: no binding

**Q.** Does B4 bind?
**A.** Result: no binding

Each binder was assayed against T3, human MS4A4A (assay: FACS, parental U937 cells (endogenous human MS4A4A, not overexpressed), 5 ug/ml).
Protocol: (§3) Purified huIgG1 chimeric anti-MS4A4A antibodies were screened for their ability to differentially bind MS4A4A on U937 cells stably overexpressing human MS4A4A, U937 cells with human MS4A4A knocked out, and parental U937 cells. Differential binding to MS4A4A expressed on these cells was assessed by FACS analysis using 5 μg/ml of purified anti-MS4A4A chimeric antibodies, as described above.

**Q.** How did the “ratio of MFI over secondary antibody alone” value (shortened to “ratio of MFI”) turn out when B7 was run?
**A.** The value was 1 ratio.

**Q.** For B8, which “ratio of MFI” value is on record?
**A.** Its value is 1.1 ratio.

Each binder was assayed against T3, human MS4A4A (assay: FACS, U937 cells overexpressing human MS4A4A, 5 ug/ml).
Protocol: as §3

**Q.** For B7, which “ratio of MFI” value is on record?
**A.** Its value is 25.3 ratio.

**Q.** Which “ratio of MFI” value does the source give for B8 here?
**A.** Its value is 8.9 ratio.
